We go through nine molecules from patent publication US20250051433A1 (INMAGENE PTE, published 2025).

For assay [1], the target named is T1, human long-form TSLP protein (Acro, tsp-h5255 or tsp-h52ha) (human, UniProt Q969D9 29-159).
T1 construct: If it was tsp-h52ha, this is the same molecule as m12 (His-tagged); also called human TSLP protein
Kind of assay: ELISA on coated human long-form TSLP, OD450; unit taken from the concentration axis.

Assay [2] has as its target T2, human long form TSLP expressed on cell membrane.
T2 construct: also called membrane long-form huTSLP fusion protein; membrane long-form TSLP fusion protein
Briefly: FACS on cells expressing the membrane human long-form TSLP fusion protein, MFI; unit taken from the concentration axis.

The target in assay [3] is T2, human long form TSLP expressed on cell …. The assay is described as above. The source holds these as a separate data set.
For assay [4] the target is unchanged. The description is as above. This is another data set of the same source.
For assay [5] the target is unchanged. The assay is described as above. The source holds these as a separate data set.
For assay [6] the target is unchanged. Briefly: FACS on cells expressing the membrane human long-form TSLP fusion protein, MFI; rising binding curve, but the table column is headed IC50; unit taken from the concentration axis.
For assay [7], the target named is T3, mouse long-form TSLP protein (ACRO, tsp-m52h8) (mouse, UniProt Q9JIE6 20-140).
T3 construct: Bought; also called mouse TSLP
T3 sequence (looked up): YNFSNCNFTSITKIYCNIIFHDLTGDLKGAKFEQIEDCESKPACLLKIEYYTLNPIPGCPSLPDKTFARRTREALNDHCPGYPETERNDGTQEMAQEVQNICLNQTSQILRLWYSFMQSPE
Briefly: ELISA on coated mouse long-form TSLP.

The target of assay [8] is T1, human long-form TSLP protein (Acro, …). Kind of assay: BLI (Gator, HFC probe), antibody loaded at 10 ug/ml, TSLP at 50 to 1.56 nM.
Assay [9] shares this target. Briefly: ELISA on coated human long-form TSLP, OD450; unit taken from the concentration axis. This is another data set of the same source.
Assay [10] has the same target. The description is as above. The source holds these as a separate data set.
Assay [11] concerns the target T4, cynomolgus long-form TSLP protein (ACRO, tsp-c52h8) (cynomolgus monkey, UniProt A0A7N9CAT7 29-159).
T4 construct: also called monkey long-form TSLP; Cyno TSLP
T4 sequence: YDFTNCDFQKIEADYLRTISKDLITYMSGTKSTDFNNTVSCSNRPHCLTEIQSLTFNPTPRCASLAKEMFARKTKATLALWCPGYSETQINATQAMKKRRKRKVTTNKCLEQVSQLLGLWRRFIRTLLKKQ
Briefly: ELISA on coated cynomolgus long-form TSLP, OD450; ambiguous fit of a flat curve (Bottom 0.06800, Top ~ 0.8608), see non_binding; unit taken from the concentration axis.

Assay [12] concerns the target T5, membrane short-form huTSLP fusion protein (human).
T5 construct: also called human short form TSLP expressed on cell membrane
Kind of assay: FACS on cells expressing membrane short-form huTSLP, MFI; ambiguous fit of a flat curve (Bottom 712.4, Top 749.3), see non_binding; unit taken from the concentration axis.

For assay [13], the target named is T4, cynomolgus long-form TSLP protein …. Briefly: ELISA on coated cynomolgus long-form TSLP, OD450; ambiguous fit of a flat curve (Bottom 0.06295, Top ~ 145.1), see non_binding; unit taken from the concentration axis.
Assay [14] addresses T5, membrane short-form huTSLP fusion …. Kind of assay: FACS on cells expressing membrane short-form huTSLP, MFI; ambiguous fit of a flat curve (Bottom 895.5, Top 876.2), see non_binding; unit taken from the concentration axis.

Where a chain is given by its changes, count along the chain named. Like-named read-outs stand apart in the source and are kept apart here.

T2 sequence (chain, as listed by the source): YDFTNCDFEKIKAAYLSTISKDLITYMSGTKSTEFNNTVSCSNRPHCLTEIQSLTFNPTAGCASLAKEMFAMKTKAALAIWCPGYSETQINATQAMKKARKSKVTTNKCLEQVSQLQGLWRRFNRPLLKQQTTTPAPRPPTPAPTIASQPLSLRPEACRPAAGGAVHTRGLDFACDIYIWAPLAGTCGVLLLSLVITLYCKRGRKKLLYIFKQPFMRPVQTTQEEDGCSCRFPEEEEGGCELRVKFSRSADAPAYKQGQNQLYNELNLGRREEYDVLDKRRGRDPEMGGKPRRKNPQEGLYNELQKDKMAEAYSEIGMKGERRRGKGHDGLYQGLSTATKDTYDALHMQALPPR
T1 sequence (Q969D9 29-159 R127A/R130A limits assumed): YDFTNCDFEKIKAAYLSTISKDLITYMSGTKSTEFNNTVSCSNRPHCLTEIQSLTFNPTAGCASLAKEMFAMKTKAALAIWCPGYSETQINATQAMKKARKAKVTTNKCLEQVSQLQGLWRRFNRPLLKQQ
T5 sequence (chain, as listed by the source limits assumed): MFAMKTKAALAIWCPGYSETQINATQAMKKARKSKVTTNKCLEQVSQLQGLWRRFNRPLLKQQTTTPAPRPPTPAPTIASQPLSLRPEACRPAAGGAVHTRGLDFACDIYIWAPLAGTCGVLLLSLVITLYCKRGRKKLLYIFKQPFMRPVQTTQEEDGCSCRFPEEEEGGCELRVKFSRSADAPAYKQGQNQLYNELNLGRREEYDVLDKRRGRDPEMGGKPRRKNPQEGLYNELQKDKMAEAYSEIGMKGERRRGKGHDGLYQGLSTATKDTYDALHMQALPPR

B1: Chi39H11 (antibody, human IgG2, V domains shown)
VH: QVQLQQSGAELVRPGSSVKISCKASGYAFSSYWMNWVKQRPGQGLEWIGQIFPGDGETNYNGKFKGKATLTADKSSSTAYMQLSSLTSEDSAVYFCARGGYVNFLYAMDYWGQGTSVTVSS
VL: EIVLTQSPALMAASPGEKVTITCSVSSSISSSNLHWYQQKSETSPKPWIYGTSTLASGVPVRFSGSGSGTSYSLTISSMEAEDAATYYCQQWSSYPLTFGAGTKLELK
notes: also called 39H11 chimeric antibody
For the molecule B1, the EC50 was determined as 0.0325 µg/mL in assay [1], 0.228 µg/mL in assay [2], 0.0953 µg/mL in [3] and 0.111 µg/mL in assay [4].

B2: Chi35G12 (antibody, human IgG2, V domains shown)
VH: QVQLQQSGAELVRPGSSVKISCKSSGYAFSSYWMNWVKQRPGQGLEWIGQIFPGDGDTTYNGNFKGKTTLTADKSSNTAYMQLSSLTSEDSAVYFCARSGFDYGYFYAMDYWGQGTSVTVSS
VL: B1 VL with A9T, Y50F, T54N, S78N
notes: also called 35G12 chimeric antibody
Turning to B2, the EC50 in assay [5] is 0.173 µg/mL; in assay [6], 0.403 µg/mL.

B3: 39H11Z11 (antibody, human IgG2, V domains shown)
VH: QVQLVQSGAEVKKPGASVKVSCKASGYAFSSYWMNWVRQAPGQGLEWMGQIFPGDGETNYNGKFKGRVTMTRDTSTSTVYMELSSLRSEDTAVYYCARGGYVNFLYAMDYWGQGTTVTVSS
VL: EIVMTQSPATLSVSPGERATLSCSVSSSISSSNLHWYQQKPGQSPRPWIYGTSTLASGIPARFSGSGSGTEFTLTISSLQSEDFAVYYCQQWSSYPLTFGGGTKVEIK
For B3, the concentration for a half-maximal effect (EC50) in [4] amounted to 0.129 µg/mL.

B4: mAb39H11 (antibody, IgG4)
heavy: QVQLVQSGAEVKKPGSSVKVSCKASGYAFSSYWMNWVRQAPGQGLEWMGQIFPGDGETNYNGKFKGRVTITADKSTSTAYMELSSLRSEDTAVYYCARGGYVNFLYAMDYWGQGTTVTVSSASTKGPSVFPLAPCSRSTSESTAALGCLVKDYFPEPVTVSWNSGALTSGVHTFPAVLQSSGLYSLSSVVTVPSSSLGTKTYTCNVDHKPSNTKVDKRVESKYGPPCPPCPAPEAAGGPSVFLFPPKPKDTLYITREPEVTCVVVDVSQEDPEVQFNWYVDGVEVHNAKTKPREEQFNSTYRVVSVLTVLHQDWLNGKEYKCKVSNKGLPSSIEKTISKAKGQPREPQVYTLPPSQEEMTKNQVSLTCLVKGFYPSDIAVEWESNGQPENNYKTTPPVLDSDGSFFLYSRLTVDKSRWQEGNVFSCSVMHEALHNHYTQKSLSLSLG
light: B3 VL
notes: not shown: human kappa light chain constant region ('its corresponding light chain vector')
With B4, the binding result in assay [7] was “no binding (tested: about 20 µg/mL)”. In addition, in assay [8], the Kd is 2.1 nM. The EC50 in assay [9] was 0.149 µg/mL; in assay [10], 0.153 µg/mL; in assay [11], around 23.8 µg/mL; in [12] it was around 0.134 µg/mL.

B5: 35G12Z02 (antibody, human IgG2, V domains shown)
VH: EVQLVQSGAEVKKPGESLKISCKSSGYAFSSYWINWVRQMPGKGLEWMGQIFPGDGDTTYNGNFKGQVTISADKSISTAYLQWSSLKASDTAMYYCARSGFDYGYFYAMDYWGQGTTVTVSS
VL: B3 VL with Y50F, T54N
As for B5, the EC50 in assay [5] is 0.174 µg/mL.

B6: mAb35G12 (antibody)
heavy: QVQLVQSGAEVKKPGSSVKVSCKSSGYAFSSYWINWVRQAPGQGLEWMGQIFPGDGDTTYNGNFKGRVTITADKSTSTAYMELSSLRSEDTAVYYCARSGFDYGYFYAMDYWGQGTTVTVSSASTKGPSVFPLAPCSRSTSESTAALGCLVKDYFPEPVTVSWNSGALTSGVHTFPAVLQSSGLYSLSSVVTVPSSSLGTKTYTCNVDHKPSNTKVDKRVESKYGPPCPPCPAPEAAGGPSVFLFPPKPKDTLYITREPEVTCVVVDVSQEDPEVQFNWYVDGVEVHNAKTKPREEQFNSTYRVVSVLTVLHQDWLNGKEYKCKVSNKGLPSSIEKTISKAKGQPREPQVYTLPPSQEEMTKNQVSLTCLVKGFYPSDIAVEWESNGQPENNYKTTPPVLDSDGSFFLYSRLTVDKSRWQEGNVFSCSVMHEALHNHYTQKSLSLSLG
light: B3 VL with Y50F, T54N
notes: as for B4
With B6, in assay [7], the binding result was “no binding (tested: about 20 µg/mL)”. Besides, the Kd in assay [8] worked out at 1.98 nM. Also, the concentration for a half-maximal effect (EC50) in [9] was 0.122 µg/mL; in assay [10], 0.206 µg/mL; in assay [13], around 51.9 µg/mL; in assay [14], around 0.384 µg/mL.

B7: 35G12Z01 (antibody, human IgG2, V domains shown)
VH: QVQLVQSGAEVKKPGASVKVSCKSSGYAFSSYWMNWVRQAPGQGLEWMGQIFPGDGDTTYNGNFKGRVTMTRDTSTSTVYMELSSLRSEDTAVYYCARSGFDYGYFYAMDYWGQGTTVTVSS
VL: B3 VL with Y50F, T54N
In turn, B7 had an EC50 in [5] of 0.158 µg/mL.

B8: 39H11Z07 (antibody, human IgG2, kappa)
heavy: QVQLVQSGAEVKKPGSSVKVSCKASGYAFSSYWMNWVRQAPGQGLEWMGQIFPGDGETNYNGKFKGRVTITADKSTSTAYMELSSLRSEDTAVYYCARGGYVNFLYAMDYWGQGTTVTVSSASTKGPSVFPLAPCSRSTSESTAALGCLVKDYFPEPVTVSWNSGALTSGVHTFPAVLQSSGLYSLSSVVTVPSSNFGTQTYTCNVDHKPSNTKVDKTVERKCCVECPPCPAPPVAGPSVFLFPPKPKDTLMISRTPEVTCVVVDVSHEDPEVQFNWYVDGVEVHNAKTKPREEQFNSTFRVVSVLTVVHQDWLNGKEYKCKVSNKGLPAPIEKTISKTKGQPREPQVYTLPPSREEMTKNQVSLTCLVKGFYPSDISVEWESNGQPENNYKTTPPMLDSDGSFFLYSKLTVDKSRWQQGNVFSCSVMHEALHNHYTQKSLSLSPGK
light: EIVMTQSPATLSVSPGERATLSCSVSSSISSSNLHWYQQKPGQSPRPWIYGTSTLASGIPARFSGSGSGTEFTLTISSLQSEDFAVYYCQQWSSYPLTFGGGTKVEIKRTVAAPSVFIFPPSDEQLKSGTASVVCLLNNFYPREAKVQWKVDNALQSGNSQESVTEQDSKDSTYSLSSTLTLSKADYEKHKVYACEVTHQGLSSPVTKSFNRGEC
notes: also called 39H11Z07-IgG2
In assay [3], B8 displayed an EC50 of 0.079 µg/mL.

B9: 35G12Z03 (antibody, human IgG2, kappa)
heavy: QVQLVQSGAEVKKPGSSVKVSCKSSGYAFSSYWINWVRQAPGQGLEWMGQIFPGDGDTTYNGNFKGRVTITADKSTSTAYMELSSLRSEDTAVYYCARSGFDYGYFYAMDYWGQGTTVTVSSASTKGPSVFPLAPCSRSTSESTAALGCLVKDYFPEPVTVSWNSGALTSGVHTFPAVLQSSGLYSLSSVVTVPSSNFGTQTYTCNVDHKPSNTKVDKTVERKCCVECPPCPAPPVAGPSVFLFPPKPKDTLMISRTPEVTCVVVDVSHEDPEVQFNWYVDGVEVHNAKTKPREEQFNSTFRVVSVLTVVHQDWLNGKEYKCKVSNKGLPAPIEKTISKTKGQPREPQVYTLPPSREEMTKNQVSLTCLVKGFYPSDISVEWESNGQPENNYKTTPPMLDSDGSFFLYSKLTVDKSRWQQGNVFSCSVMHEALHNHYTQKSLSLSPGK
light: B8 light with Y50F, T54N
notes: also called 35G12Z03-IgG2
B9 registered an EC50 in assay [5] of 0.159 µg/mL.
